{"source": "the supplement of paper PMC10567573", "parents": {"B1": {"name": "DYRK1B (parent)", "chain": "ARKYFERLPGGGWTLRRTKELRKD"}, "B2": {"name": "OR3A1 (parent)", "chain": "PMYFFLGNLSVLDVGCISVTVPSM"}}}
{"variants_of": "B1", "assay": "protein stability index of a GFP-peptide fusion (GPS, HEK-293T) (PSI 1-6); higher = more stable", "conditions": "c terminus: a fixed tail appended"}
{"variant": "ARKYFERLPGGGWTLRRTKELRKR", "note": "[D24R]", "protein stability index": 3}
{"variant": "ARKYFERLPGGGWTLRRTKELRKT", "note": "[D24T]", "protein stability index": 3.36}
{"variant": "ARKYFERLPGGGWTLRRTKELRKQ", "note": "[D24Q]", "protein stability index": 3.68}
{"variant": "ARKYFERLPGGGWTLRRTKELRKL", "note": "[D24L]", "protein stability index": 2.58}
{"variant": "ARKYFERLPGGGWTLRRTKELRKW", "note": "[D24W]", "protein stability index": 1.91}
{"variant": "ARKYFERLPGGGWTLRRTKELRKK", "note": "[D24K]", "protein stability index": 3.07}
{"variants_of": "B2", "assay": "protein stability index of a GFP-peptide fusion (GPS, HEK-293T) (PSI 1-6); higher = more stable", "conditions": "c terminus: a fixed tail appended"}
{"variant": "PMYFFLHNLSVLDVGCISVTVPSM", "note": "[G7H]", "protein stability index": 1.39}
{"variant": "PMYFFLFNLSVLDVGCISVTVPSM", "note": "[G7F]", "protein stability index": 3.9}
{"variant": "PMYFFLKNLSVLDVGCISVTVPSM", "note": "[G7K]", "protein stability index": 2.05}
{"variant": "PMYFFLNNLSVLDVGCISVTVPSM", "note": "[G7N]", "protein stability index": 1.99}
{"variant": "PMYFFLQNLSVLDVGCISVTVPSM", "note": "[G7Q]", "protein stability index": 2.31}
{"variant": "PMYFFLSNLSVLDVGCISVTVPSM", "note": "[G7S]", "protein stability index": 2.72}
{"variant": "PMYFFLGNLSVLDVFCISVTVPSM", "note": "[G15F]", "protein stability index": 2.94}
{"variant": "PMYFFLGNLSVLDVYCISVTVPSM", "note": "[G15Y]", "protein stability index": 1.93}
{"variant": "PMYFFLGNLSVLDVCCISVTVPSM", "note": "[G15C]", "protein stability index": 2.71}
{"variant": "PMYFFLGNLSVLDVACISVTVPSM", "note": "[G15A]", "protein stability index": 2}
{"variant": "PMYFFLGNLSVLDVTCISVTVPSM", "note": "[G15T]", "protein stability index": 2.71}
{"variant": "PMYFFLGNLSVLDVICISVTVPSM", "note": "[G15I]", "protein stability index": 2.83}
{"variant": "PMYFFLGNLSVLDVWCISVTVPSM", "note": "[G15W]", "protein stability index": 2.87}
{"variant": "PMYFFLGNLSVLDVNCISVTVPSM", "note": "[G15N]", "protein stability index": 2.63}
{"variant": "PMYFFLGNLSVLDVPCISVTVPSM", "note": "[G15P]", "protein stability index": 2.36}
{"variant": "PMYFFLGNLSVLDVGCISVTVYSM", "note": "[P22Y]", "protein stability index": 3.21}
{"variant": "PMYFFLGNLSVLDVGCISVTVCSM", "note": "[P22C]", "protein stability index": 2.72}
{"variant": "PMYFFLGNLSVLDVGCISVTVESM", "note": "[P22E]", "protein stability index": 3.69}
{"variant": "PMYFFLGNLSVLDVGCISVTVWSM", "note": "[P22W]", "protein stability index": 3.15}
{"variant": "PMYFFLGNLSVLDVGCISVTVQSM", "note": "[P22Q]", "protein stability index": 3.27}
{"variant": "PMYFFLGNLSVLDVGCISVTVKSM", "note": "[P22K]", "protein stability index": 3.56}
{"variant": "PMYFFLGNLSVLDVGCISVTVVSM", "note": "[P22V]", "protein stability index": 2.1}
{"variant": "PMYFFLGNLSVLDVGCISVTVMSM", "note": "[P22M]", "protein stability index": 2.94}
{"variant": "PMYFFLGNLSVLDVGCISVTVDSM", "note": "[P22D]", "protein stability index": 2.56}
{"variant": "PMYFFLGNLSVLDVGCISVTVTSM", "note": "[P22T]", "protein stability index": 2.38}
{"variant": "NMYFFLGNLSVLDVGCISVTVPSM", "note": "[P1N]", "protein stability index": 3.87}
{"variant": "HMYFFLGNLSVLDVGCISVTVPSM", "note": "[P1H]", "protein stability index": 2.79}
{"variant": "LMYFFLGNLSVLDVGCISVTVPSM", "note": "[P1L]", "protein stability index": 4.36}
{"variant": "EMYFFLGNLSVLDVGCISVTVPSM", "note": "[P1E]", "protein stability index": 2.01}
{"variant": "RMYFFLGNLSVLDVGCISVTVPSM", "note": "[P1R]", "protein stability index": 3.81}
{"variant": "YMYFFLGNLSVLDVGCISVTVPSM", "note": "[P1Y]", "protein stability index": 2.1}
{"variant": "CMYFFLGNLSVLDVGCISVTVPSM", "note": "[P1C]", "protein stability index": 2.46}
{"variant": "TMYFFLGNLSVLDVGCISVTVPSM", "note": "[P1T]", "protein stability index": 2.16}
{"variant": "PMYRFLGNLSVLDVGCISVTVPSM", "note": "[F4R]", "protein stability index": 2.19}
{"variant": "PMYSFLGNLSVLDVGCISVTVPSM", "note": "[F4S]", "protein stability index": 1.91}
{"variant": "PMYDFLGNLSVLDVGCISVTVPSM", "note": "[F4D]", "protein stability index": 2.63}
{"variant": "PMYKFLGNLSVLDVGCISVTVPSM", "note": "[F4K]", "protein stability index": 1.52}
{"variant": "PMYPFLGNLSVLDVGCISVTVPSM", "note": "[F4P]", "protein stability index": 3.27}
{"variant": "PMYFFLGGLSVLDVGCISVTVPSM", "note": "[N8G]", "protein stability index": 2.71}
{"variant": "PMYFFLGWLSVLDVGCISVTVPSM", "note": "[N8W]", "protein stability index": 3.59}
{"variant": "PMYFFLGPLSVLDVGCISVTVPSM", "note": "[N8P]", "protein stability index": 2.27}
{"variant": "PMYFFLGFLSVLDVGCISVTVPSM", "note": "[N8F]", "protein stability index": 2.06}
{"variant": "PMYFFLGNLSVLDVGCISVTVPSL", "note": "[M24L]", "protein stability index": 1.24}
{"variant": "PMYFFLGNLSVLDVGCISVTVPSV", "note": "[M24V]", "protein stability index": 3.3}
{"variant": "PMYFFLGNLSVLDVGCISVTVPSN", "note": "[M24N]", "protein stability index": 3.98}
{"variant": "PMYFFLGNLSVLDVGCISVTVPSD", "note": "[M24D]", "protein stability index": 3.67}
{"variant": "PMYFFLGNLSVLDVGCISVTVPSC", "note": "[M24C]", "protein stability index": 2.27}
{"variant": "PMYFFLGNLSVLDVGCISVTVPSA", "note": "[M24A]", "protein stability index": 3.27}
{"variant": "PMYFFLGNRSVLDVGCISVTVPSM", "note": "[L9R]", "protein stability index": 3.52}
{"variant": "PMYFFLGNQSVLDVGCISVTVPSM", "note": "[L9Q]", "protein stability index": 1.96}
{"variant": "PMYFFLGNSSVLDVGCISVTVPSM", "note": "[L9S]", "protein stability index": 1.99}
{"variant": "PMYFFLGNTSVLDVGCISVTVPSM", "note": "[L9T]", "protein stability index": 2.59}
{"variant": "PMYFFLGNESVLDVGCISVTVPSM", "note": "[L9E]", "protein stability index": 3.5}
{"variant": "PMYFFLGNASVLDVGCISVTVPSM", "note": "[L9A]", "protein stability index": 2.42}
{"variant": "PMYFFLGNDSVLDVGCISVTVPSM", "note": "[L9D]", "protein stability index": 2}
{"variant": "PMYFFLGNKSVLDVGCISVTVPSM", "note": "[L9K]", "protein stability index": 2.86}
{"variant": "PMYFFLGNLSVLMVGCISVTVPSM", "note": "[D13M]", "protein stability index": 2.35}
{"variant": "PMYFFLGNLSVLYVGCISVTVPSM", "note": "[D13Y]", "protein stability index": 2.55}
{"variant": "PMYFFLGNLSVLIVGCISVTVPSM", "note": "[D13I]", "protein stability index": 3.37}
{"variant": "PMYFFLGNLSVLQVGCISVTVPSM", "note": "[D13Q]", "protein stability index": 2.48}
{"variant": "PMYFFLGNLSVLPVGCISVTVPSM", "note": "[D13P]", "protein stability index": 3.47}
{"variant": "PMYFFLGNLSVLCVGCISVTVPSM", "note": "[D13C]", "protein stability index": 4.05}
{"variant": "PMYFFLGNLSVLFVGCISVTVPSM", "note": "[D13F]", "protein stability index": 3.38}
{"variant": "PMYFFLGNLSVLGVGCISVTVPSM", "note": "[D13G]", "protein stability index": 2.55}
{"variant": "PMYFFLGNLSVLLVGCISVTVPSM", "note": "[D13L]", "protein stability index": 3.26}
{"variant": "PMYFFLGNLSVLEVGCISVTVPSM", "note": "[D13E]", "protein stability index": 3.63}
{"variant": "PMYFFLGNLSVLVVGCISVTVPSM", "note": "[D13V]", "protein stability index": 1.73}
{"variant": "PMYFFLGNLSVLNVGCISVTVPSM", "note": "[D13N]", "protein stability index": 2.1}
{"variant": "PMYFFLGNLEVLDVGCISVTVPSM", "note": "[S10E]", "protein stability index": 3.25}
{"variant": "PMYFFLGNLCVLDVGCISVTVPSM", "note": "[S10C]", "protein stability index": 2.81}
{"variant": "PMYFFLGNLRVLDVGCISVTVPSM", "note": "[S10R]", "protein stability index": 2.27}
{"variant": "PMYFFLGNLKVLDVGCISVTVPSM", "note": "[S10K]", "protein stability index": 3.48}
{"variant": "PMYFFLGNLYVLDVGCISVTVPSM", "note": "[S10Y]", "protein stability index": 3.38}
{"variant": "PMYFFLGNLWVLDVGCISVTVPSM", "note": "[S10W]", "protein stability index": 3.31}
{"variant": "PMYFFLGNLQVLDVGCISVTVPSM", "note": "[S10Q]", "protein stability index": 1.03}
{"variant": "PMYFFLGNLSVLDVGCISVIVPSM", "note": "[T20I]", "protein stability index": 2.43}
{"variant": "PMYFFLGNLSVLDVGCISVWVPSM", "note": "[T20W]", "protein stability index": 2.62}
{"variant": "PMYFFLGNLSVLDVGCISVDVPSM", "note": "[T20D]", "protein stability index": 1.12}
{"variant": "PMYFFLGNLSVLDVGCISVGVPSM", "note": "[T20G]", "protein stability index": 1.69}
{"variant": "PMYFFLGNLSVLDVGCISVMVPSM", "note": "[T20M]", "protein stability index": 4.27}
{"variant": "PMYFFLGNLSVLDVGCISVQVPSM", "note": "[T20Q]", "protein stability index": 3.11}
{"variant": "PMYFFLGNLSVLDVGCISVFVPSM", "note": "[T20F]", "protein stability index": 2.71}
{"variant": "PMYFFLGNLSVLDVGCISVLVPSM", "note": "[T20L]", "protein stability index": 2.99}
{"variant": "PMYFFEGNLSVLDVGCISVTVPSM", "note": "[L6E]", "protein stability index": 2.34}
{"variant": "PMYFFTGNLSVLDVGCISVTVPSM", "note": "[L6T]", "protein stability index": 2.21}
{"variant": "PMYFFVGNLSVLDVGCISVTVPSM", "note": "[L6V]", "protein stability index": 2.32}
{"variant": "PMYFFLGNLSVLDVGCIVVTVPSM", "note": "[S18V]", "protein stability index": 1.8}
{"variant": "PMYFFLGNLSVLDVGCIEVTVPSM", "note": "[S18E]", "protein stability index": 2.7}
